Drawing on patent publication US20210340217A1, “NOVEL PEPTIDES AND COMBINATION OF PEPTIDES FOR USE IN IMMUNOTHERAPY AGAINST OVARIAN CANCER AND OTHER CANCERS” (Immatics Biotechnologies GmbH, priority 2017, published 2021), this text covers Peptide exchange for 30 substances.

The first experiment has as its target HLA-A*24:02 (Homo sapiens, UniProt P04439, D101N/D140Y/D185E/E176V/E190D/F33S/G103R/G107R/I119L/I121M/I306V/K335N/L105A/L180Q/L300P/N151K/N90K/Q86E/Q94H/R106L/R138H/R89G/T104I/T345S/V100E/W191G/Y123F). Nature of the experiment: MHC binding assay (UV-ligand exchange, beta2m ELISA). The conditions noted are these: peptide exchange yield. Summed up: (§1)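 Peptide–MHC complexes formed by UV-induced exchange of a UV-cleavable peptide for the test peptide. Exchange yield measured by streptavidin-capture ELISA detecting β2m (HRP anti-β2m, TMB, A450) on 100-fold diluted samples. Quantified against refolded HLA-A*02:01/MLA-001 standards (15-500 ng/ml).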
Background: ELISA stands for enzyme-linked immunosorbent assay.
As to “255 (VFVSFSSLF; listed as Homo sapiens) [compound 255]”, the Peptide exchange result is on record as “+++ (>50 = +++)”.

In the case of “81 (VYNHTTRPL; listed as Homo sapiens) [compound 81]”, the Peptide exchange entry was “++++ (>75% = ++++)”.

Consider “252 (LYQPRASEM; listed as Homo sapiens) [compound 252]”, for which the Peptide exchange entry is recorded as “+++ (>50 = +++)”.

In a further experiment the target is HLA-A*02:01 (Homo sapiens, UniProt P04439, D140Y/D185E/D98H/E176V/E277Q/G131W/G231S/I119V/I121R/I166T/I218V/L300P/L318F/N151K/N90K/P208A/P217A/Q86G/Q94H/R138H/R169H/T345S). The description is as above. The conditions noted are these: peptide exchange yield. Summed up: as §1
For the substance “236 (SAIPFSMTL; listed as Homo sapiens) [compound 236]”, the Peptide exchange entry is “+++ (>50 = +++)”.

Regarding “241 (RQPNILVHL; listed as Homo sapiens) [compound 241]”, the Peptide exchange entry was “++ (>20% = ++)”.

On to “220 (RMTTQLLLL; listed as Homo sapiens) [compound 220]”, for which the Peptide exchange entry is “+++ (>50 = +++)”.

“7 (ALQAFEFRV; listed as Homo sapiens) [compound 7]”: the Peptide exchange result is “++++ (>75% = ++++)”.

In the case of “227 (YTFRYPLSL; listed as Homo sapiens) [compound 227]”, the Peptide exchange result is “+++ (>50 = +++)”.

Take “1 (MIPTFTALL; listed as Homo sapiens) [compound 1]”: the Peptide exchange result is “+++ (>50 = +++)”.

As to “61 (YMVHIQVTL; listed as Homo sapiens) [compound 61]”, the Peptide exchange result was “++++ (>75% = ++++)”.

For “3 (ALIYNLVGI; listed as Homo sapiens) [compound 3]”, the Peptide exchange result is “++++ (>75% = ++++)”.

Regarding “72 (YLTDLQVSL; listed as Homo sapiens) [compound 72]”, the Peptide exchange entry is on record as “++++ (>75% = ++++)”.

On to “63 (MMEEMIFNL; listed as Homo sapiens) [compound 63]”, for which the Peptide exchange result is listed as “++++ (>75% = ++++)”.

“4 (ALFKAWAL; listed as Homo sapiens) [compound 4]”: the Peptide exchange entry is given as “++++ (>75% = ++++)”.

“75 (KVVSVLYNV; listed as Homo sapiens) [compound 75]”: the Peptide exchange result was “++++ (>75% = ++++)”.

Regarding “68 (KLFDTQQFL; listed as Homo sapiens) [compound 68]”, the Peptide exchange entry is “++++ (>75% = ++++)”.

For the substance “69 (TTYEGSITV; listed as Homo sapiens) [compound 69]”, the Peptide exchange entry was “++++ (>75% = ++++)”.

For the substance “223 (FAHHGRSL; listed as Homo sapiens) [compound 223]”, the Peptide exchange result is “+ (>10% = +)”.

“219 (PLPRPGAVL; listed as Homo sapiens) [compound 219]”: the Peptide exchange entry is recorded as “+ (>10% = +)”.

In the case of “6 (SLGKHTVAL; listed as Homo sapiens) [compound 6]”, the Peptide exchange entry is on record as “+++ (>50 = +++)”.

Turning to “229 (ISVPAKTSL; listed as Homo sapiens) [compound 229]”, the Peptide exchange result is reported as “+ (>10% = +)”.

For the substance “243 (YASEGVKQV; listed as Homo sapiens) [compound 243]”, the Peptide exchange result is “+++ (>50 = +++)”.

Turning to “244 (DTDSSVHVQV; listed as Homo sapiens) [compound 244]”, the Peptide exchange entry was “+ (>10% = +)”.

On to “242 (STIPALHEI; listed as Homo sapiens) [compound 242]”, for which the Peptide exchange entry was “+++ (>50 = +++)”.

As for “224 (SLPRFQVTL; listed as Homo sapiens) [compound 224]”, the Peptide exchange result is recorded as “++++ (>75% = ++++)”.

Turning to “62 (KVLGVNVML; listed as Homo sapiens) [compound 62]”, the Peptide exchange result was “++++ (>75% = ++++)”.

“231 (SVTESTHHL; listed as Homo sapiens) [compound 231]”: the Peptide exchange result is listed as “+++ (>50 = +++)”.

As for “64 (FLDPDRHFL; listed as Homo sapiens) [compound 64]”, the Peptide exchange result is recorded as “++++ (>75% = ++++)”.

For the substance “232 (TISSLTHEL; listed as Homo sapiens) [compound 232]”, the Peptide exchange result is listed as “++++ (>75% = ++++)”.

Take “66 (GLLQELSSI; listed as Homo sapiens) [compound 66]”: the Peptide exchange result is “++++ (>75% = ++++)”.
